Experimental data published in PMC9665845.

Biological target: human Kap-β2/Transportin-1 (TNPO1), GST tag removed (human) (UniProt Q92973)
UniProt Q92973, sequence (Q92973 whole entry): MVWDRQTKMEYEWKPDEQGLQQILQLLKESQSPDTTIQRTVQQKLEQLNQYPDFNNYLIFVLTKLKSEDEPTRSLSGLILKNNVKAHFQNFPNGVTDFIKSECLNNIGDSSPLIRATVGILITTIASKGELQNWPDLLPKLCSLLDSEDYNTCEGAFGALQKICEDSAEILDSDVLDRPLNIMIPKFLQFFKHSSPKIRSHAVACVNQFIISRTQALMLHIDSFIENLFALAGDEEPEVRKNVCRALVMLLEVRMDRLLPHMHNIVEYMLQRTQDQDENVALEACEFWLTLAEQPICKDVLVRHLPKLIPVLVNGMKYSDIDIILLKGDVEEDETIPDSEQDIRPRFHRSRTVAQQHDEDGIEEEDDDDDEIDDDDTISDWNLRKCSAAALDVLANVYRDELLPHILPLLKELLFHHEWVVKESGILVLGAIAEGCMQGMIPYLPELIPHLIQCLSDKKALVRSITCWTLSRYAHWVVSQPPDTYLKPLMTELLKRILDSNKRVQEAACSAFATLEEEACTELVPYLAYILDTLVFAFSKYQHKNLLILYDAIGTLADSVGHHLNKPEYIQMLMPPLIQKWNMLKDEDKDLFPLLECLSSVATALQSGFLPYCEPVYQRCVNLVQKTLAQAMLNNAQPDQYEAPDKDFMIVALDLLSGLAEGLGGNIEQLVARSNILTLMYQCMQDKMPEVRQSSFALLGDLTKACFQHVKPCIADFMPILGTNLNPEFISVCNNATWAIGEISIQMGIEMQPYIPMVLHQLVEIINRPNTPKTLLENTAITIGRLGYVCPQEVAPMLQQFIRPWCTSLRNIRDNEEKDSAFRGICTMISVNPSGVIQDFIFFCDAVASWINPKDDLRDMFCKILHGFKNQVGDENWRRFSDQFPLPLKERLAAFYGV

Binder	percent reduction of TCF/LEF luciferase activity in 3T3 mouse fibroblast reporter cells activated by human β-catenin-GFP; blocks TNPO1 with β-catenin [%]	percent reduction of TCF/LEF luciferase activity in 3T3 mouse fibroblast reporter cells activated by human β-catenin-GFP [%]
GGSYNDFGNYNNQSSNFGPMKGGNFGGRFEPYANPTKR [M9M peptide]	45	–
GGSYNDFGNYNNQSSNAAAAKGGNFGGAFEAAANPTKR [M9M-A peptide]	–	24
